In article doi:10.1101/2023.01.26.525422, “Histone-organized chromatin in bacteria” (bioRxiv, 2023):

T1: Bd0055 (Bdellovibrio bacteriovorus HD100, UniProt Q6MRM1 1-64)
T1 sequence: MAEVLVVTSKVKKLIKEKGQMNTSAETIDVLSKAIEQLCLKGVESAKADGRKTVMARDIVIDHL

B1: Bd0055, Bdellovibrio bacteriovorus histone (natural protein, Bdellovibrio bacteriovorus HD100, UniProt Q6MRM1 1-64, looked up)
chain: T1 sequence
notes: Bd0055, singlet histone fold protein of Bdellovibrio bacteriovorus HD100; the ORF was expressed; No tag is mentioned; purified by ion exchange, heparin and size exclusion; also called wildtype Bd0055; B. bacteriovorus histone; source: E. coli, codon-optimized ORF in a pET vector, purified (SP HP, Heparin HP, S75)
B2: 35 bp DNA (dsDNA)
DNA 1: TCTTGCACTAAGAGCTACTGGAGTGCGTCAGATGT
DNA 2: ACATCTGACGCACTCCAGTAGCTCTTAGTGCAAGA

Experiments:
[1] = target: the molecule itself; assay: crystal structure; apo Bd0055; hanging drop, 3.2 M (NH4)2SO4, 100 mM BICINE pH 9; 1.8 Å
Bd0055 = target: T1, Bd0055; assay: X-ray crystallography; 10 mM NaCl, 0.1 mM EDTA, 50 mM HEPES pH 7.5; 16:1 protein to DNA; 1 dimer per 2.5 bp; FP/FRET: 10 nM DNA, 10 mM NaCl, 1 mM EDTA, 50 mM HEPES pH 6, RT; EMSA: 1 uM DNA, 10 mM NaCl, 1 mM EDTA, 50 mM HEPES pH 7.5, RT; conditions: protein: recombinant; chain copies: 2; blunt

| Binder | stoichiometry N [1] | binding result (Bd0055) |
| --- | --- | --- |
| B1 | 2 |  |
| B2 |  | binds |
